Measurements published in patent US10274499B2, “SH2 domain variants” (THE UNIVERSITY OF WESTERN ONTARIO, priority 2012, dated 2019).

B1: T8V/C10A/K15L: variant human Src SH2 domain, position 8 Val, position 10 Ala, position 15 Leu; SEQ ID NO:21 (protein)
chain: DSIQAEEWYFGKITRRESERLLLNAENPRGTFLVRESETVKGAYALSVSDFDNAKGLNVKHYLIRKLDSGGFYITSRTQFNSLQQLVAYYSKHADGLCHRLTTVCPTSK
modifications: Synthetic construct T8V/C10A/K15L
B2: T8V/S10A/K15L: variant Fyn SH2 domain: Thr position 8 to Val, Ser position 10 to Ala, Lys position 15 to Leu; SEQ ID NO:17 (protein)
chain: APVDSIQAEEWYFGKLGRKDAERQLLSFGNPRGTFLIRESETVKGAYALSIRDWDDMKGDHVKHYLIRKLDNGGYYITTRAQFETLQQLVQHYSERAAGLCCRLVVPCHKG
modifications: Synthetic construct T8V/S10A/K15L
B3: T8I/S10A/K15L: variant Fyn SH2 domain; SEQ ID NO:16 (protein)
chain: APVDSIQAEEWYFGKLGRKDAERQLLSFGNPRGTFLIRESETIKGAYALSIRDWDDMKGDHVKHYLIRKLDNGGYYITTRAQFETLQQLVQHYSERAAGLCCRLVVPCHKG
modifications: Synthetic construct T8I/S10A/K15L
B4: A8V/S10A/K15L: variant human Grb2 SH2 domain, Met55 to Pro158 with A8V, S10A, K15L substitutions; SEQ ID NO: 22 (protein)
chain: MKPHPWFFGKIPRAKAEEMLSKQRHDGAFLIRESESVPGDFALSVKFGNDVQHFLVLRDGAGKYFLWVVKFNSLNELVDYHRSTSVSRNQQIFLRDIEQVPQQP
modifications: Synthetic construct Grb2_triple

Key:
EGFR = target: T1, EGFR (Homo sapiens, UniProt P00533); test: immunoprecipitation of GFP-fused SH2 domains with EGFR in HEK 293 cells; assay type: cell-based; conditions: GFP-fusion expressed in HEK 293 cells, EGF 100 ng/ml, anti-GFP and anti-EGFR antibodies
T1 construct: endogenous in cells; host or cells: HEK 293
Source text: The three variant SH2 domains mentioned in the previous sentence were dubbed as 8V/10A/15L-substituted SH2 domains, or the TrM SH2 domains, in the following descriptions, as well as in FIG. 11 and FIG. 12. The wild-type (Wt) and TrM SH2 domains, subcloned into the pEGFPC2 vector, were expressed in the HEK 293 cells as a GFP-fusion protein. Methods used in this and the following sections are described below.
Anti-GFP rabbit polyclonal antibody was purchased from Sigma-Aldrich. Anti-EGFR rabbit polyclonal antibody was purchased from Millipore. Anti-p44/42 MAPK (Erk1/2) mouse monoclonal antibody, and anti-phospho-p44/42 MAPK (Thr202/Tyr204) mouse monoclonal antibody were purchased from Cell Signaling. HEK 293 cells were grown in Dulbecco's modification of Eagle's medium (DMEM, Sigma-Aldrich) supplemented with 10% fetal bovine serum (FBS, SAFC Biosciences), 50 units/ml penicillin and 50 μg/ml streptomycin (GIBCO Invitrogen Corp.) in a humidified atmosphere of 5% CO2 in air at 37° C. EGF (Invitrogen) at a final concentration of 100 ng/ml was added to the medium at the indicated time point. Transient transfections were carried out with jet-PEI (PolyPlus-Transfection; Illkirch, France) according to manufacturer's instruction.
HEK 293 cells were transfected with the SH2 domain construct subcloned in the pEGFPC2 vector, and incubated in serum-containing full medium for 24 h followed by serum-starvation for 16 h and then EGF (100 ng/ml) treatment for 10 min, pervanadate treatment for 10 min. The whole cell lysates were prepared and subjected to IB analysis to detect phosphorylated Erk and total Erk.
HEK 293 cells were lysed with cold lysis buffer (1% NP-40, 50 mM Tris-HCl pH 7.4, 150 mM NaCl, 2 mM EDTA, 50 mM NaF, 10% Glycerol and protease inhibitor cocktail diluted at 1:1000). After centrifugation at 13,000*g for 15 min, the supernatants were collected. After clearance of the lysate with appropriate pre-immune serum and protein G (Roche), immunoprecipitation (IP) and immunoblotting (IB) were performed. […]

[1] = target: fluorescein-GGpYGG peptide (SEQ ID NO: 23); test: fluorescence polarization binding assay, GGpYGG peptide
[2] = test system: seven fluorescein-labeled pTyr-containing peptides; test: in-solution fluorescence polarization binding assay, set of seven peptides; conditions: average over seven peptides, relative to the wild type of the same SH2 domain
Description: (§1) Each peptide was synthesized on the TentaGel amide resin (INTAVIS Inc.) and N-terminally labeled with fluorescein using NHS-fluorescein (Thermo Fisher Scientific). Each of the 13 variant and the wild-type SH2 domain was produced by overexpression in the Escherichia coli BL21(DE3) strain cultured in LB media (EMD Chemicals). Expression was induced by 0.3 mM isopropyl β-D-1-thiogalactopyranoside (IPTG), and the cell culture was incubated for 5 hours at 37° C. The cells were harvested by centrifuge, and broken on ice, in buffer solution containing 20 mM sodium phosphate, 0.1 M NaCl, 20 mM imidazole, 1 mg/ml lysozyme and 1% Triton-X 100, adjusted at pH 7.8. Affinity purification was performed with the Ni-NTA agarose resin (Qiagen Inc.), according to the manufacturer's instruction. The purified material was dialyzed against phosphate-buffered saline (PBS), pH 7.4, at 4° C. overnight. Measurements of fluorescence polarization were conducted by titrating the SH2 domain concentration, while keeping the peptide concentration constant. Kd values were calculated with the GraphPad Prism software, by assuming the one-site binding model (GraphPad Software).
(§2) The determined Kd values of interaction between the 14 SH2 domains (including the wild-type) and seven peptides were listed in FIG. 7(a).
The wild-type and variant Src SH2 domains were expressed in E. coli BL21(DE3) strain grown in the LB media, by inducing protein expression with 0.3 mM IPTG, and incubating the cell culture at 30° C. for six hours. Cells were harvested by centrifuge, and broken on ice in buffer solution containing 20 mM sodium phosphate, 0.1 M NaCl, 20 mM imidazole, 1 mg/ml lysozyme, 1% Triton-X 100, adjusted at pH 7.8. Affinity purification was performed with the Ni-NTA, agarose resin, according to the manufacturer's instruction. […]
Fluorescence polarization assay was conducted to determine Kd values of the interaction between the wild-type or variant Src SH2 domain and seven fluorescein-labeled pTyr-containing peptides (FIG. 9a).

[3] = test system: phosphorylated proteins (ALK) from H370 cell lysate; test: GST pulldown, H370 cell lysate with ALK activation by mAb46; assay type: binding, human; conditions: GST fusion, compared to the Wt
Description: The Wt human Src (hSrc) SH2, the TrM hSrc SH2, and Wt Rous sarcoma virus Src (vSrc) SH2 domains were prepared, respectively, as GST tag fusion proteins. The vSrc SH2 domain is almost identical to the hSrc SH2 domain (there are three-residue differences in the SH2 domain region, and the differences are located outside of the target-binding surface). 5 μg of the GST-tagged SH2 domain was incubated with 500 μg of H370 cell lysate treated with or without the ALK activation antibody mAb-46 at room temperature for 30 min. 20 μl of glutathione sepharose beads was then added for another 30 minincubation at room temperature. As a positive control, the anti-pTyr antibody P-Tyr-100 (Cell Signaling, #9411) was used for immunoprecipitation. 4 μl of the P-Tyr-100 antibody was incubated with 500 μg H370 cell lysate treated with or without the ALK activation antibody mAb-46 for 2 hours at 4° C. Next, 20 μl protein G beads was added for another incubation for two hours at 4° C. The glutathione beads or protein G beads were washed with 1×PBS (phosphate buffered saline) three times. The beads were added to 30 μl 2×SDS loading buffer and boiled for 10 min. The samples were resolved on an 8% Bis-Tris SDS-PAGE gel. The gel was applied to Western blotting to transfer the samples onto PVDF membrane (Millipore) and the proteins were probed with the P-Tyr-100 antibody. […]

A549 cells = test: cell viability after gold nanoparticle delivery of SH2 protein, EGF treatment, A549; assay type: cell-based; conditions: 100 ng/ml EGF, compared with the Wt SH2 domain
Description: (§3) The hexa-histidine-tagged SrcWt and TrM proteins were purified to homogeneity in 5 mM HEPES buffer (pH 7.6). 1 nM of gold nanoparticle was mixed with 100 nMWt or TrM variant protein. The MCF-7 and A549 cells were starved six hours before treatment. The cells were then treated with 100 ng/ml EGF for 20 hours. The nanoparticle-protein mixture was applied to cells. Cells were trypsinized and stained using 0.4% trypan blue (Sigma-Aldrich) and viable and total cell numbers were counted haemacytometer with the use of a microscope according to manufacturer's instruction.

MCF-7 cells = test: cell viability after gold nanoparticle delivery of SH2 protein, EGF treatment, MCF-7; assay type: cell-based; conditions: MCF-7 (no EGF receptor), 100 ng/ml EGF
Description: as §3

[4] = test system: tyrosine-phosphorylated proteins of U937 cell lysate; test: Far-Western blotting, pervanadate-treated U937 cell lysate; assay type: binding, human; conditions: GST fusion 3.5 μg/ml
Description: The GST protein and GST-Src SH2 TrM were prepared as 3.5 μg/ml concentration in the TBS buffer (50 mM Tris-HCl pH 7.2, 137 mM NaCl). The cultured U937 cells were treated with or without 50 μM pervanadate in PBS for 10 min at 37° C. The cells were lysed in the buffer (0.5% NP-40, 50 mM HEPES pH 7.4, 1 mM magnesium chloride, 150 mMKCl) with sonication on ice, and supernatant was loaded on an SDS-PAGE gel for separation and following transfer to the PVDF membrane (Millipore). The membrane was blocked with 5% milk in TBS-T (0.5% Tween-20 in TBS) overnight at 4° C., and probed with 3.5 μg/ml GST proteins for 1 hour at room temperature. The membrane was washed with TBS-T, and incubated with anti-GST antibody-HRP (horseradish peroxidase) conjugate (Sigma, #A7340) for 1 hour at room temperature. The signal from HRP was detected as enhanced chemiluminescence on an X-ray film.

[5] = test system: tyrosine-phosphorylated proteins from HeLa cell lysate; test: GST pulldown assay, pervanadate-treated HeLa cell lysate; assay type: binding; conditions: GST fusion, compared to the Wt SH2 domain, 4G10 immunoblot
Description: The wild-type (Wt) and triple mutant (TrM) Fyn SH2 domains (Ala^139-Gly^249) were respectively subcloned into the pETM30 vector (Dümmler, et al. Microb. Cell Fact. 4, 34 (2005)). The Fyn SH2 domain constructs contain a FLAG tag sequence ([…]) (SEQ ID NO: 27) at the C-terminus. To create the GST control vector, a stop codon was inserted after the GST tag sequence of the original pETM30 vector. The GST and GST-SH2 proteins were expressed in E. coli BL21(DE3). HeLa cells were treated with 50 μM pervanadate for 10 min at 37° C. HeLa cells were lysed on ice in lysis buffer containing 0.5% NP-40, 50 mM HEPES pH 7.4, 1 mM magnesium chloride, 150 mMKCl, and the COMPLETE protease inhibitor cocktail (Roche). The GST pulldown assay was conducted as described (Li et al. J. Biol. Chem. 278, 3852-3859 (2003)).

[6] = test system: non-phosphorylated fluorescein-GGYGG peptide (SEQ ID NO: 24); test: fluorescence polarization binding assay, non-phosphorylated GGYGG peptide
Description: as §1, §2

Chain of non-phosphorylated fluorescein-GGYGG peptide (SEQ ID NO: 24) (as listed by the source): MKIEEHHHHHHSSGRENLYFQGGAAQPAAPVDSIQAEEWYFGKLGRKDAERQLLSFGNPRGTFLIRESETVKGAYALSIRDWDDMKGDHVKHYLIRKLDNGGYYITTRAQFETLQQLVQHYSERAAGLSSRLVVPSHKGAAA
Chain of phosphorylated proteins (ALK) from H370 cell lysate (Q9UM73 1060-1620 limits assumed): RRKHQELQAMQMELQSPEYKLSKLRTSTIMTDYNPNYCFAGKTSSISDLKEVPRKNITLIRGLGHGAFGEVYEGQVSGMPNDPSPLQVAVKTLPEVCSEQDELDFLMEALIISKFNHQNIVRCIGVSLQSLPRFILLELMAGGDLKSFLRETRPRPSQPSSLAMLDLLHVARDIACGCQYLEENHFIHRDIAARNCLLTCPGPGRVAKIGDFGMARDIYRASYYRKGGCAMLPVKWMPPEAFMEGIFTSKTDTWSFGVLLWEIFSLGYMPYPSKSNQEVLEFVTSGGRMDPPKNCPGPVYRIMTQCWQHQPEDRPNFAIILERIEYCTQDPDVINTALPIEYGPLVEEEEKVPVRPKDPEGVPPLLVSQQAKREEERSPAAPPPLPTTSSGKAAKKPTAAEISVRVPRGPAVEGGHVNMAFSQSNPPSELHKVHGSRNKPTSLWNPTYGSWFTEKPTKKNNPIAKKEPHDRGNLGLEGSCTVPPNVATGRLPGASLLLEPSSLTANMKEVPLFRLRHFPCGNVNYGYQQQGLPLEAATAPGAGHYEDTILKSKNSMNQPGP

Molecule | binding to EGFR (immunoprecipitation) (EGFR) | Kd [1] | average affinity increase, Kd[wild-type] divided by Kd[variant] [2] | capture of phosphorylated proteins from H370 cell lysate upon stimulation [3] | cell viability upon EGF treatment (A549 cells) | cell viability upon EGF stimulation (MCF-7 cells) | detection of tyrosine-phosphorylated proteins by Far-Western blotting [4] | ability to bind tyrosine-phosphorylated proteins (GST pulldown) [5] | binding to non-phosphorylated peptide [6]
B1 | strong binding | 510 nM | 238 fold | substantially larger amount | reduced cell variability | did not significantly affect cell variability | broad detection of tyrosine-phosphorylated proteins |  | 
B2 | strong binding |  | 293 fold |  |  |  |  | enhanced ability | did not show detectable binding
B3 |  |  | 86.4 fold |  |  |  |  |  | 
B4 | strong binding |  |  |  |  |  |  |  | 
